Source: the DeepSol protein solubility set

Assay: soluble on expression in E. coli; label from the status in PepcDB or PDB records

| Sequence | soluble on expression in E. coli |
| --- | --- |
| EVKVEESGGGLVQPGGSMKLSCVASGFTFSNYWMEWVRQSPEKGLEWVAEIRLKSNNYATHYAESVKGRFTISRDDSKSSVYLQMNNLRAEDTGIYYCTRGGAVGAMDYWGQGTSVTVSSATTTAPSVYPLVPGCSDTSGSSVTLGCLVKGYFPEPVTVKWNYGALSSGVRTVSSVLQSGFYSLSSLVTVPSSTWPSQTVICNVAHPASKVDLIKEPSGP | soluble |
| MEFDKLYGPSNVENRLVQVKATTAEAIHFNRQIQPIIENRCVVCHGCYDAPCQLKMESRAGIERGANKAMVYNGERLLTANISASLTKLTELKRDNLEPLRQQGYFPVLNERQQTEQANTQSSLFYQMLQLKKQHPLPSEPILNESFDVALDRSQQCPTIEEFEQYKDKYPLGGMPYALPALSTTEHDQLTDWIARGAIMPDSVPPNAKEQQMINRWEKLLNGSSAKEQLIARYLFEHLYLANLYFDKAQSSYFKLVRSSSPSGEKVAVITTRRPFDSPYADGSTDAIVDKPQVYYRLIKHNDTIIAKRHMPYPFGESKLARISELFYQPDYPVTTLPDYQLANASNPFKTFQAIPDKARYQFLLDQAQFSIMNFIKGPVCRGQIALNVIEDNFWVFFLSPNNFDHYPSEQFIKANTELLQLPAGTSDKSLSLLYWRQYAKSQQEYVKNKLAYVEGLNLQPNQLNLDLIWSGKGNPNASLTVFRHFDSASVLQGFVGPTPKTAWLISYPLLERIHYLLVAGFDVYGSVSHQLKTRLYMDFLRMEAESNFISFLPKDERKAIHEYWYRETGDDIKDYIFSDGFYQLPETGMNYQSNKHQEELFQLVGQHTKNTNVSQFNLSSLAQSSADKIIANLSQLPNESVALLPQVSYVMVSNGDDNQVYSLINNSAHSNVAHLFSEENRRLPREDNLAILRGVVGTYPNAFFKVEQAQLSEFVSNLNAIKTEQDYRKLKDQFAIRRTNPKFWIFADELHAWYKTNQPKSAGLLDFNRLENRLEHHHHHH | not soluble |
| SMAENGDNEKMAALEAKICHQIEYYFGDFNLPRDKFLKEQIKLDEGWVPLEIMIKFNRLNRLTTDFNVIVEALSKSKAELMEISEDKTKIRRSPSKPLPEVTDEYKNDVKNRSVYIKGFPTDATLDDIKEWLEDKGQVLNIQMRRTLHKAFKGSIFVVFDSIESAKKFVETPGQKYKETDLLILFKDDYFAKKNE | soluble |
| MKKLFFIMAMSVCAFTAQAQTTSGIRVGLNMTSATGKYNDLMADQDYNNKSYMGYSIHYFIDVPVIGNFSIQPAVGLSMKGITYEYDKFTTKKSHRLDLDSYKKYDVTESRGTSVTQKHNLGYLDVPILFAYALPLSESFRVQLGVGPYFSYGLFGKFKYESDKYLTVSPDKYGENKHTITKDDYPSFGKNDDADDPKGNINRFDWGIAVQGSIYWKRLFLNVAYQKGLKSANITDEKNEGKDKLALSNLSLGLGFIF | not soluble |
| MGSDKIHHHHHHVSYPANRTPDHLLESDRAAGFEISADFERFDQRNDIFTRAFWDERVKSKDTDAFFASYRMEAAPRRGDGFTQKDFALRNAAWLISDIVSERSAEEGLREGFQGAIRDDTPVAPDKADLGAPEAEAAEMKAVAKLFGADLVGITHFDARWHYSARPDVRTMEAVPNDLPEGLGQVIVMGHAMDADLVETYPSALAGAATGREYSHEAAIVMQVAAYVRNLGYRAVASMNDTALVIPYAIKAGLGEYGRNQMVLTPEFGPRVRFSKIFTDMPLAVDAPRAFGLKAYCEGCDVCAVACPVKALPFGAPEFGGKAPSALRGVKKWTSDAEACFGYWAKLRSDCAICMRVCPFTAPRAGWVDRLWYKLAVGVFGDTGRGIARKWAARRAKARVKPKDWWAALRS | not soluble |
| MSLTADTSLSSIQEAINVVQQYNATDPVRLKLFHTPRMVSQGAHFAFCLPTKKPHYKPLLLSQNALDEFNLVQDQDLEKILSGEKVYYSDSIFPYSTVYSGFQFGSFAAQLGDGRVVNLFDLKDKCSGQWQTFQLKGAGMTPFSRFADGKAVLRSSIREFIMSEALHSIGIPSTRAMQLTLLPGTKAQRRNQEPCAVVCRFAPSWIRLGNFNLFRWRHDLKGLIQLSDYCIEELFAGGTQFEGKPDFNIFKRDFFPDTETKIDEQVEKDETEVSTMTGDNISTLSKYDEFFRHVVSLNANTVAHWQAYGFANGVLNTDNTSIMGLTIDYGPFAFLDKFEPSFTPNHDDTAKRYSFANQPSIIWWNLQQFAKDLACLLGPEARDLELLLKGELNSVDDALEKTMIERVQKLVELSANEYKYVFTTRYAQIMSQRLGVDLDLEKCMSSTNLKDIEHAAEKAKEFCDVIVEPLLDILQATKVDYNNFFIHLQNYKGPFFIKDKSDTATLFGAFDEEYLGMFFNSKQLQQMAETEEAFAAGEKVFDANGELRLLNEKLQEIRNWTQDYLTLVPPTETAARASLAKKANPLFVPRSWVLEEVVDDLMYSQRDGLQDPSSELDTSALKKLYLMSVNPYDRTKWDVTLRPELETKWADLSHQDDAKFMMQASCSSEGHHHHHH | soluble |
| MSIIFNQRIEIIRAGEKRSVYSSDVMEDWDNPVVLPVEVPVSIQPVSSTESDATANRSYVTSRFRLFSPPGIDIPQLKAKDRVRIGLLVLDVVGDPARWPHPLKPATVHHVEADLEVHRG | not soluble |
| MGSDKIHHHHHHMTQPTLPPPPRTRFTVSDFNRMGGSVGFNYRLPGQEGGGTGIENLCIAEGRVEECEIRPGITLIVSDVHVYHHYESTSVMTPRFSAIVMLQGQARARLDKQDDVRLAAQSGLNALYGDTVAMTGVHPAGQRLRSVNLSVTAPEAADDEYTSEIIWKLMQSSAPRLRRWPVPHHLLLSIEHLLECDWDQPLRNMVREGVGTQLLAHALAALQHAPVTHRGLTQRDRQLLERVRERLHEAPGEDHTLDDLARLACMSPSTLRAKFHAVYHRSVFSWLRERRLEVAREQLARGWSVQQAAHFVGYRHATNFATAFRERYGVAPSQLG | not soluble |
| MGSDKIHHHHHHLNIAVNTRLLLEDRLEGIGWFTYETLKRITEQNPQHTFHFFFDRPYNDKFVFGKNVVPHVLFPQARHPFLWYIFFEWSIPFMLRKVKADAFISTDGYMPKSSKVKVLNVIHDINFEHRPQDLPKRVANYYKKNMPLFAQKATRLATVSEFSKQDLVKTYNIPADKIDVVYNGCNAAFKPIPEAEQVKVRYKHSAGRPFFLYIGSMHPRKNILNLMKAFEVFKKMTNCDMKLLLVGKAMWSNKDIQSLYHTLIYRHDIHFLGHIKTAELARIMASAHALTFVPYFEGFGIPILEALNCGVPVITSNTTSLPEVAGKAALLVNPESSEAIANAMIQIYKAPHIREKLLAQGVIQRQKFSWDKTAALLWASFEKMMR | not soluble |
| MGSDKIHHHHHHMKTRYTYGGDEHVYVEIDDEMSLDAFFIALSLSKLVREANIPGVTEICPANASFEVRFDPDVIAPDEMMARIRELEGAAKAQEKRLDTRIIEIPVFYEDPWTHETLMRFRERHQDPSGTDLDYAARINGYDDAAAFIEAHHSQPWFVSMVGFVSGLPFLYQLVERQKQLEVPKYLRPRTDTPKLTVGYGGCFSCIYSVRGAGGYQMFGITPMPIFDPEQKISYLKDFMVFFRPGDIVKWKPIDRAEYDAITAQVEAGSYVPKIAEVAFDLDAFNKDMTGFNAKLMEALNDA | not soluble |
| MVEIFNEIMQRVKEAETIIIHRHVRPDPDAYGSQLGLKLYLERKFPEKNIYATGEAEPSLSFIGDLDEIDDSVYSDALVIVCDTANAPRIDDQRYLNGQSLIKIDHHPATDQYGDVNFVNTEASSTSEIIFDFISHFNDLSIIDEHVARVLYLGIVGDTGRFLFSNTSPHTMEVASQLLAYPFNHNAELNKMSEKDPKLMPFQGYVLQNFELSDSHEYCQIKITNDVLKQFDIQPNEASQFVNTVADISGLKIWMFGVDEGDQIRCRIRSKGITINDVANQFGGGGHPNASGVSVYSWDEFEELAQALRQKLLEHHHHHH | soluble |
| MARVRIVAKKNGPYLLEVDGKVQTALCRCGHSNNKPYCDGTHARVGFQADEKVAFEAEFAAALEHHHHHH | not soluble |
| MGSDKIHHHHHHKLFAAHGVDKVRLTGGEPTIRKDIVHIVEGISSTPGIKEVGITTNGLVLQRFLPQLRDAGLTKINISIDSLDREKFAKMTRRDGFDKVWKAIELARGYYPKVKLNVVVLKHQNENEVVDFVNLTKDRNLDVRFIEFMPFGGNEFKNDNFIGYREMLNLIVDKYGDGVIRLSDSPNDTTKAYKIDGFQGQFGFITSMSDHFCNTCNRLRITADGNL | not soluble |
| MAHHHHHHMHLKECPPASSVGWLRPSLTIYMFGSKSLALSSAVFVLDCFTMGRKQRLLSAVVNVPLTLRLMLYFSASYKGEEPRLPPSTCVLGSSQGNNFLLLPGAFAESGCTTFFPGREGLMSELQDELWLQLPSRLLILARLDLANFLFAVVGRLPNSGINLFQQRPPSSLAVLPKRCMGMTLVALTTL | not soluble |
| MKFEDLLATNKQVQFAHAATQHYKSVKTPDFLEKDPHHKKFHNADGLNQQGSSTPSTATDANAASTASTHTNTTTFKRHIVAVDDISKMNYEMIKNSPGNVITNANQDEIDISTLKTRLYKDNLYAMNDNFLQAVNDQIVTLNAAEQDQETEDPDLSDDEKIDILTKIQENLLEEYQKLSQKERKWFILKELLLDANVELDLFSNRGRKASHPIAFGAVAIPTNVNANSLAFNRTKRRKINKNGLLENIL | soluble |
| DERLLAREVQKMRFRRSTYSSPQPATQQPANGSERKNDSDNLVGAENHSAETPTDNRSAEVEQPYYPAKYEEELLRLIIRYGERKLLIYRHEEGAEKQTPSEVALAYYIKSDLNADGVDIGTDVFRQILDEAAEQSFDSGFVAAKYFRDHPNAQISHIAVELLTNRYALSRIHYGKGDESNAEEDLQMRVERELLTIKNVFIQVQIRALQKEIAQAQKAGDIELQLEIMNELRSMNEMKSELAHRLGDRTVLP | not soluble |
| MKPLPDYNHSVVEQLNALTAAGTLQADAAQLGVAAHLDRILADLKARKPARKKSALGWMFARKAGPAAFVKGLYVHGSVGRGKTMLMDMFYEMAPVSSKRRCHFHEFMADVHNRVHTHRQKLKNGETKQADPIPPVAAQLLAEAELLCFDEFTVTDIADAMILARLFSELFANGCTLVTTSNVVPDNLYKDGLNRGLFLPFVDLLKKYVEVVTLDSPTDYRMEKLESLPVYITPLDGSADQAMDMAWRHMTAGHLVAPTEIPMKGRSILVPRRQRPGCPFFLFRPLRKAARSFRLSRHRQSFRYGLHRSHSASQCRQALEHHHHHH | soluble |
| MLRWITAGESHGRALVAVVEGMVAGVHVTSADIADQLARRRLGYGRGARMTFERDAVTVLSGIRHGSTLGGPIAIEIGNTEWPKWETVMAADPVDPAELADVARNAPLTRPRPGHADYAGMLKYGFDDARPVLERASARETAARVAAGTVARAFLRQALGVEVLSHVISIGASAPYEGPPPRAEDLPAIDASPVRAYDKAAEADMIAQIEAAKKDGDTLGGVVEAVALGLPVGLGSFTSGDHRLDSQLAAAVMGIQAIKGVEIGDGFQTARRRGSRAHDEMYPGPDGVVRSTNRAGGLEGGMTNGQPLRVRAAMKPISTVPRALATVDLATGDEAVAIHQRSDVCAVPAAGVVVETMVALVLARAALEKFGGDSLAETQRNIAAYQRSVADREAPAARVSGHHHHHH | soluble |
| MVFKSKKDKFSEMLMNVSENLKEGAQFFVEYKIKNASDLKEFSMRMKEYESKGDSFIHEIIMELNKAFITPIEREDILQLAMSMDDVLDGLDHSAGLFEMYSITEADEYMIKFVEAINQCAIEIANSVELMSNKKLVDIRTNAIKIKDYESQCDDIRRHAIKNLFSREKDPIKIIQFKEIYEELEEVADSCQSVANVLETIIMKNALEHHHHHH | soluble |
| PLKEQKVINTANITTNSKLDLAEYENGLMNIAKEQFDTENHVLQLNQYIPEKLVDELVAKVKAPVLTNIIEQDYFGKQNSNELSLSGVVIGLAMSSSVSNEEALSKGTEVAGQLIEAIHKNGKYNKSPITFAIFKQESTSSLKNGTYIASATVQKNDTNLGNWNAIEEKAYSYPSDEFTQAHGEDNEKINKFAEAMKGFSPGDFIPVNAKVSYKKNQMDTLNMDIVIKYNGKTELMALTQLAAQSMLDQLPKDAKVQLQIKSENKIEAIVIKEKNSDKPFVSFL | soluble |
